Molecular target: BcSpd1 (Botrytis cinerea, UniProt A0A384JL35 1-465)
Experiment: EMSA; excess unlabeled probe blocked the shift; LightShift Chemiluminescent EMSA kit procedure (Thermo Scientific); buffer, salt, pH and temperature not given
Conditions: protein: recombinant; tags: His (pET28a); chain copies: 2; blunt

B1: BcQdo promoter fragment 3 (E-BcQdo-Pr3) (dsDNA)
DNA 1: TACCGAACGCCCACAAGCCTTGAATATAGATGTACCGGTACTGCTGCCGA
DNA 2: TCGGCAGCAGTACCGGTACATCTATATTCAAGGCTTGTGGGCGTTCGGTA
- binding result: binds
